Assay results published in patent publication US8933202B2, “AXL antibodies” (U3 Pharma GmbH, priority 2007, dated 2015).

What was measured:
[1] = test system: NCI-H292 lung cancer cells; assay: Wound healing/scratch assay; type: cell-based, human; details: 10 μg/ml antibody, 24 h, compared to isotypic control antibody
Text: To examine the migration and proliferation rates of different cells and culture conditions, in vitro wound healing/scratch assays are being employed for many years. These assays generally involve growing a confluent cell monolayer first. A small area is then disrupted and a group of cells are being destroyed or displaced by scratching a line through the layer with, for example, a pipette tip. The open gap is then inspected microscopically over time as the cells move in and fill the damaged area (“healing”). In brief, 1.5×10^6 NCI-H292 lung cancer cells were seeded per well of a 12 well dish and cultured in normal growth medium (RPMI, 10% FCS). After 8 h, cells were rinsed with PBS and starved in low serum medium (RPMI, 0.5% FCS) over night for 24 h. Using a sterile 200 μl pipette tip, three separate uniform wounds per well were scratched through the confluent NCI-H292 cell monolayers. […] Cells were permitted to migrate into the area of clearing for 24 h, washed once with PBS and fixed with ice cold Methanol (100%) at −20° C. After cells were stained with crystal violet (0.5% in 20% Methanol), rinsed with water and dried over night, photos of the wounds were taken.

AXL = molecular target: T1, AXL (Homo sapiens, UniProt P30530); assay: Axl phosphorylation ELISA, rat versus chimeric antibody; type: cell-based; design: endogenous in cells; host or cells: CaSki cervical cancer cells
T1 sequence (P30530 26-894): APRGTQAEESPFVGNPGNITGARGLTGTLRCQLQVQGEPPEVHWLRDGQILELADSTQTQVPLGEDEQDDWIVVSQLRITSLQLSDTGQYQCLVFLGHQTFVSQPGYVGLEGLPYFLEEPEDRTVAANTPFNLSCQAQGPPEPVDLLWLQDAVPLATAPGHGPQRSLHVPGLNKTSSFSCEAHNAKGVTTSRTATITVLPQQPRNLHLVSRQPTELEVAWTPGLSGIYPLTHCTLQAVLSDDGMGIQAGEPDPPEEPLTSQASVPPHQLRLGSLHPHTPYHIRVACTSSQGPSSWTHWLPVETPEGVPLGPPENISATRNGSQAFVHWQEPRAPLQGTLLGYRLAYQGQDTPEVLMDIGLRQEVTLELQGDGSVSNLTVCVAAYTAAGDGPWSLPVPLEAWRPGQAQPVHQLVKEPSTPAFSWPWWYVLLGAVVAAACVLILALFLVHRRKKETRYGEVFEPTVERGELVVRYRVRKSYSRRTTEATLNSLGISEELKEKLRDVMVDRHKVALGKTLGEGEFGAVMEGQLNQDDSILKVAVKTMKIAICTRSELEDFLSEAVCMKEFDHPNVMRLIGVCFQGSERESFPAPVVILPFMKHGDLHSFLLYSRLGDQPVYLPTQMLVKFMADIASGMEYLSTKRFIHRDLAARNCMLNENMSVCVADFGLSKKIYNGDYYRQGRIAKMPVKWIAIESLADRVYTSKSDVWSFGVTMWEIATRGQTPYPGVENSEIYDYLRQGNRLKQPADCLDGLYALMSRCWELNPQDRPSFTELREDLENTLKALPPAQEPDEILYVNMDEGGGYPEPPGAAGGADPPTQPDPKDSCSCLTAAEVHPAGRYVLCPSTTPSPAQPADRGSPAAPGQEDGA
Method: In order to investigate whether the rat anti-Axl antibodies of the invention and the corresponding chimeric anti-Axl antibodies of the invention were able to inhibit ligand Gas6-mediated Axl activation in vitro to similar extent, ELISA experiments on CaSki cervical cancer cells were performed. Gas6-mediated Axl activation was thereby detected by increased receptor tyrosine phosphorylation. In brief, on day 1, 3×10^4 cells per well were seeded in normal growth medium in flat-bottom 96 well plates. The next day, growth medium was replaced by serum-free medium to starve cells over night for 24 h. Also over night, black Maxi-Sorp 96 well plates (Nunc) were coated with mouse anti-phospho-tyrosine antibody 4G10 at 2 μg/ml PBS and 4° C. On day 3, the 4G10 antibody solution was removed and Maxi-Sorp wells were blocked with PBS, 0.5% BSA for at lest 4 h at room temperature. In parallel, cells were pre-incubated with 50 ng/ml, 100 ng/ml, 300 ng/ml, 750 ng/ml, 1 μg/ml, and 10 μg/ml of rat anti-Axl antibody 11B7 or chimeric anti-Axl antibody ch11B7 for 1 h at 37° C. and subsequently treated with or without 400 ng/ml Gas6 (R&D Systems) for 10 min at 37° C. […] Using a Victor plate reader (Perkin Elmer), the fluorescence of each well was collected at an excitation wavelength of 430 nm and an emission wavelength of 580 nm.

[2] = test system: NIH3T3-AXL cl.7 fibroblasts; assay: AlamarBlue Gas6-induced proliferation assay; type: cell-based; details: 20 μg/ml antibody, with or without 400 ng/ml Gas6, 96 h
Method: In vitro experiments were conducted in order to determine the ability of the rat anti-AXL antibodies of the invention to inhibit Gas6-induced cell proliferation. For this purpose, 2,500 NIH3T3-AXL cl.7 fibroblasts per well were seeded in FCS-containing medium on 96 well plates over night. […] Cells were treated with or without 400 ng/ml mouse Gas6 (R&D Systems) by adding ligand directly to the antibody solution, and were then left to grow for 96 h. AlamarBlue™ (BIOSOURCE #DAL1100) was added and incubated at 37° C. in the dark. Absorbance was measured at 590 nm every 30 min. The data were taken 4 h after addition of AlamarBlue™.

B1: 11B7: antagonistic rat anti-AXL monoclonal antibody, rat IgG1 (antibody, V domains shown)
VL: DIQMTQAPSSLPASLGDRVTITCRASQDIGNYLRWFQQKPGKSPRLMISGATNLAAGVPSRFSGSRSGSDYSLTISSLESEDMADYYCLQSKESPWTFGGGTKLELK
VH: EVQLQESGPGLVKPSQSLSLTCSVTGYSITSNYWGWIRKFPGDKMEWMGYITYSGSTSYNPSLKSRISITRDTSKNQFFLQLNSVTSEDTATYYCAITTFYYWGQGVMVTVSS
[1]
  re-population of the cleared area (wound closure): reduced the re-population of the cleared area
AXL; 50 ng/ml to 10 μg/ml antibody, 400 ng/ml Gas6, CaSki cervical cancer cells
  ligand-induced Axl activation (relative Axl phosphorylation), concentration-dependent: able to block ligand-induced activation of the receptor tyrosine kinase Axl to similar extent
AXL; same experimental settings, C-8161
  ligand-induced Axl activation in melanoma cell line C-8161: Comparable effects
[2]
  cell proliferation: blocked Gas6-induced proliferation
